Assay results published in IntAct's records for PubMed 18589438.

B1: Bcl-2-binding component 3 (Mus musculus), Q99ML1 (parent)
chain: MARARQEGSSPEPVEGLARDSPRPFPLGRLMPSAVSCSLCEPGLPAAPAAPALLPAAYLCAPTAPPAVTAALGGPRWPGGHRSRPRGPRPDGPQPSLSPAQQHLESPVPSAPEALAGGPTQAAPGVRVEEEEWAREIGAQLRRMADDLNAQYERRRQEEQHRHRPSPWRVMYNLFMGLLPLPRDPGAPEMEPN
B2: Phorbol-12-myristate-13-acetate-induced protein 1 (Mus musculus), Q9JM54 (parent)
chain: MPGRKARRNAPVNPTRAELPPEFAAQLRKIGDKVYCTWSAPDITVVLAQMPGKSQKSRMRSPSPTRVPADLKDECAQLRRIGDKVNLRQKLLNLISKLFNLVT

Variants of: B1
Settings: with mcl1_mouse Mcl1, P97287
Sequence of mcl1_mouse Mcl1, P97287 (P97287 whole entry): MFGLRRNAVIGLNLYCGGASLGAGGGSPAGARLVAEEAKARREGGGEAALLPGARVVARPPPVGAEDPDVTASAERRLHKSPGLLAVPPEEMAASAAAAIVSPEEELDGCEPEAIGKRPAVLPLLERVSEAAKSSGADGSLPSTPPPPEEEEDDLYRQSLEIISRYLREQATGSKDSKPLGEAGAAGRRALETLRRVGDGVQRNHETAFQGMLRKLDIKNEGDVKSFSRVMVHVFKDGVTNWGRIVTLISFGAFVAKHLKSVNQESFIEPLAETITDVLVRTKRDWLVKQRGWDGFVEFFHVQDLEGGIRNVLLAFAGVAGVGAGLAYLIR

| effect of a mutation on the interaction | Variant |
| --- | --- |
| increasing interaction | MARARQEGSSPEPVEGLARDSPRPFPLGRLMPSAVSCSLCEPGLPAAPAAPALLPAAYLCAPTAPPAVTAALGGPRWPGGHRSRPRGPRPDGPQPSLSPAQQHLESPVPSAPEALAGGPTQAAPGVRVEEEEWAREIGAQLRRIADDLNAQYERRRQEEQHRHRPSPWRVMYNLFMGLLPLPRDPGAPEMEPN [M144I] |

Variants of: B2
Settings: with mcl1_mouse Mcl1, P97287

| effect of a mutation on the interaction | Variant |
| --- | --- |
| increasing interaction strength | MPGRKARRNAPVNPTRAELPPEFAAQLRKIGDKVYCTWSAPDITVVLAQMPGKSQKSRMRSPSPTRVPADLKDFCAQLRRIGDKVNLRQKLLNLISKLFNLVT [E74F] |
